# Laboratory results published in patent US20240043505A1.
# B1: Nb21 (VHH)
# VHH: QVQLVESGGGLVQAGGSLRLSCAVSGLGAHRVGWFRRAPGKEREFVAAIGANGGNTNYLDSVKGRFTISRDNAKNTIYLQMNSLKPQDTAVYYCAARDIETAEYTYWGQGTQVTVSS
# Biological target: SARS-CoV-2 RBD E484K mutant (SARS-CoV-2), P0DTC2
# Settings: remark: other sources report otherwise
binder,measurement,value
B1,binding affinity fold change relative to RBD WT,< -1000 fold
